Experimental data: US10029000B2, “Uses of IL-12 in hematopoiesis” (University of Southern California, priority 2003, dated 2018)
“Also recorded” adds a separate entry of the source.

What was measured:
Assay type in all cases: in vivo, mice
bone marrow = experiment: Bone marrow histology (H&E) after lethal dose radiation; settings: 5 ug/kg
Procedure: At different time post IL-12 treatment (5 ug/kg) and lethal dose radiation (1, 12 and 14 days), femurs were isolated, fixed in 10% formalin, decalcified and processed for paraffin section and for Hematoxylin & Eosin staining. FIG. 2A: 1 day post radiation; FIG. 2B: 12 days post radiation; FIG. 2C: 14 days post radiation. […] (200× magnification)
To determine if IL-112 sensitizes intestinal tract to ionizing radiation, two different doses of IL-12 and radiation were used in radioprotection assay, namely 5 ug/kg and 50 ug/kg of IL-12 and two different doses of radiation were also used. Subsequent to the administration of IL-12 and radiation, both bone marrow and the small intestine were removed from mice who received either 5 ug/kg or 50 ug/kg of IL-12 and a lethal dose radiation for histology study. The lethal doses were either 1000 rad or 1600 rad.
Mice were treated with IL-12 (100 ng/mouse) or PBS 24 hours before receiving lethal irradiation. At different days after lethal irradiation, femurs, spleens and small intestines were removed and fixed in 10% formalin buffer for 24 hours. Subsequently, bone marrow was decalcified in Rapid Decalcifier for about 30 minutes. Samples and tissues then were embedded in TissuePrep 2 paraffin wax for micro-section at 5 μm for routine Hematoxylin and Eosin staining. Some small intestines were treated with PAS (Periodic Acid Schiff) staining.

[1] = test system: bone marrow progenitor cells; experiment: Colony forming cell assay (CFC assay) of bone marrow after lethal irradiation
Procedure: To determine the bone marrow cell subsets that are protected by IL-12 administration for the rescue phenomena, CFC and CFU-S12 assay were performed at different time post lethal dose radiation. Bone marrow cells were recovered from IL-12 treated or control animals immediately (day 0), or at day 7, 9, 10, 12, 14 and 21 post radiation for CFC and CFU-S12 assay. If progenitor cells are protected from IL-12 treatment (IL-12 was administered in this study at 24 hours before radiation), CFC and CFU-S12 colonies should be detected when cells were removed at day 0. However, bone marrow cells isolated at day 0, 7 post radiation give rise no CFC nor CFU-S12 colonies in both IL-12 treated and control animals. At day 10 post radiation, the bone marrow cells isolated from IL-12 treated mice start to give rise of CFU-S12 but no detectable CFC, which start to appear from IL-112 treated bone marrow isolated 12 days post radiation and fully recovered from bone marrow cells isolated 14 days post radiation, as shown in FIGS. 5A and 5B. […] The CFU-S12 colony forming cells and CFC cells at day 10 and day 14 post radiation may be derived from long-term repopulating stem cells rescued by IL-12 treatment.
FIG. 5A: Isolated bone marrow cells were plated in methycellulose plates for 12 days to detect colony formation. Bone marrow cells from normal mice were used as control for the assay system. […] In contract, there is no recovery of CFC cell activity from control mice bone marrow cells.
24 hours before lethal irradiation, mice were i.v. treated with IL-12 (100 ng/mouse) and bone marrow cells were isolated from these mice at different days after lethal irradiation. For CFU assay, 2×10^5 bone marrow cells were thoroughly mixed into 1 ml methylcellulose medium MethCult GF M3434 from StemCell Technologies Inc (Vancouver, BC) and cultured into 35 mm dishes. Each sample was duplicated. After 12 days culture, colonies (>50 cells) were counted under microscope.

bone marrow cells = experiment: BrdU incorporation assay; settings: 24 hours post IL-12 administration (10 ng/mouse); control 8%
Procedure: It is believed that cells at S phase are more resistant to radiation. Both Brd-U incoperation and cell cycling analysis were performed to determine if IL-12 can stimulate bone marrow cell proliferation. In IL-12 treated mice, there are more bone marrow cells in S phase compared with control animals (12% vs 10%, p<0.05). Furthermore, there are more BrdU positive cells in IL-12 treated bone marrow compared with control animals (17% vs 8%, p<0.05).
24 hours post IL-12 administration (10 ng/mouse), bone marrow cells were isolated for BrdU incooperation assay (FIG. 7A).
For the BrdU assay, IL-12 (10 ng/mouse) or PBS was intravenously injected into mice. 21 hours after injection, mice were i.p. injected with 5-Bromo-2′-deoxyuridine (BrdU from Sigma) at 50 mg/kg dosage. 3 hours after BrdU injection, mice were sacrificed and whole bone marrow cells were isolated from femurs and treated with lysis buffer to destroy red blood cells. Bone marrow cells were dispersed on a slide by cytospin for the proliferation assay using BrdU immunohistochemistry system kit purchased from Oncogene Research Products (Boston, Mass.)

peripheral blood cells = experiment: Blood cell recovery after chemotherapeutic drug Cytoxan; settings: Cytoxan 300 mg/kg, IL-12 36 hrs before or 12 hrs after, n=5
Procedure: FIG. 9A: white blood cell; FIG. 9B: red blood cell; FIG. 9C: platelet; FIG. 9D: lymphocyte; FIG. 9E: monocyte; FIG. 9F: neutrophile. Cytoxan is name for cyclophosphamide.
A study was conducted to determine whether IL-12 administration promotes multi-lineage blood cell recovery when used in conjunction with a chemotherapeutic drug. In this example, use of IL-12 is as an adjuvant or ancillary therapy to the primary therapy of chemotherapy. IL-12 was administrated at different time (36 hrs before or 12 hrs after chemotherapy). Mice in this study received a relatively high dose of chemotherapeutic drug Cytoxan (e.g., 300 mg/kg). At different time post-cytoxan treatment, peripheral blood was collected via tail vein for blood cell count study. (Mascot). FIG. 9A white blood cell count; B: red blood cell count; C: platelet count.

B1: IL-12: Recombinant murine interleukin 12, heterodimeric cytokine (p35+p40), purchased from R&D Systems or PeproTech (protein, UniProt P43431 23-215; P43432 23-335, looked up)
Interleukin-12 subunit alpha: RVIPVSGPARCLSQSRNLLKTTDDMVKTAREKLKHYSCTAEDIDHEDITRDQTSTLKTCLPLELHKNESCLATRETSSTTRGSCLPPQKTSLMMTLCLGSIYEDLKMYQTEFQAINAALQNHNHQQIILDKGMLVAIDELMQSLNHNGETLRQKPPVGEADPYRVKMKLCILLHAFSTRVVTINRVMGYLSSA
Interleukin-12 subunit beta: MWELEKDVYVVEVDWTPDAPGETVNLTCDTPEEDDITWTSDQRHGVIGSGKTLTITVKEFLDAGQYTCHKGGETLSHSHLLLHKKENGIWSTEILKNFKNKTFLKCEAPNYSGRFTCSWLVQRNMDLKFNIKSSSSSPDSRAVTCGMASLSAEKVTLDQRDYEKYSVSCQEDVTCPTAEETLPIELALEARQQNKYENYSTSFFIRDIIKPDPPKNLQMKPLKNSQVEVSWEYPDSWSTPHSYFSLKFFVRIQRKKEKMKETEEGCNQKGAFLVEKTSTEVQCKGGNVCVQAQDRYYNSSCSKWACVPCRVRS
**Q.** Which “bone marrow cellularity versus control” value (bone marrow; day 1 post lethal radiation) does the source give for B1 here?
**A.** significant higher cellularity

**Q.** What about the “bone marrow histological structure versus control” value (bone marrow; day 7 and day 10 post radiation) of the same molecule?
**A.** no significant difference

**Q.** And the bone marrow colonies (bone marrow; day 12 post radiation)?
**A.** colonies were observed

**Q.** What about the bone marrow recovery (bone marrow; day 14 post radiation) of the same molecule?
**A.** full recovery of bone marrow cellularity; also recorded: significant regeneration

**Q.** And the CFC activity ([1]; day 12 post lethal radiation)?
**A.** low level CFC cell activity

**Q.** And the CFC activity ([1]; first 9 days post lethal radiation, IL-12 24 hours before radiation)?
**A.** no detectable CFC activity

**Q.** And the “time of full recovery of CFC activity” value ([1]; lethal radiation, IL-12 24 hours before radiation)?
**A.** about 14 days post radiation

**Q.** What about the “BrdU positive cells in bone marrow” value (bone marrow cells) of the same molecule?
**A.** 17%

**Q.** What about the “blood cell recovery versus control” value (peripheral blood cells) of the same molecule?
**A.** better blood cell recovery
